Patent publication US10995119B2, “Peptide exhibiting hydrolytic activity and use thereof” (Okinawa Institute of Science and Technology School …, priority 2016, dated 2021)
Read-outs that look alike come from different tables or passages of the source.

Legend:
SOD1 2-12 = SOD1 2-12 (Homo sapiens, UniProt P00441); test: Hydrolysis activity against SOD1 2-12; format: biochemical; conditions: Example 3 (1); substrate SOD1 2-38 or SOD1 2-12
Excerpt: (§1) In JAL 1-22 C19M and JAL 7-22 C19M, Cys residues contained in JAL form S—S bonds during a reaction, and this makes fragment analysis difficult. On this account, JAL 1-22 and JAL 7-22 were modified so as to substitute Cys residues by Met.

SOD1 2-38 = SOD1 2-38 (Homo sapiens, UniProt P00441); test: Hydrolysis activity against SOD1 2-38; format: biochemical; conditions: Example 3 (1); substrate SOD1 2-38 or SOD1 2-12
Description: As a control, physiological saline (0.9 w/v %) was used instead of the buffer solution. […] Also, it is considered that physiological saline is suitable for storage of JAL before use, for example.
Next, an experiment was conducted to consider an optimal pH for activity using JAL as the hydrolytic peptide and SOD1 2-38 as a substrate.
Metal ions to be added to a reaction solution were Zn^2+, Ca^2+, Co^2+, or combinations thereof. The concentrations of the metal ions in the respective reaction solutions were as follows: 10 mmol/l for Ca^2+; and 5 μmol/l for the other metal ions.
as §1

Aβ1-19 = Aβ1-19 (Homo sapiens, UniProt P05067); test: Hydrolysis activity against Aβ1-19
Description: The present experiment was conducted to consider an optimal concentration of a hydrolytic peptide relative to a substrate, using JAL 7-22 C19M as the hydrolytic peptide and Aβ1-19 as the substrate. The measurement of activity was performed in the same manner as in the above item (1), except that the incubation time was set to 0 days, 3 days, or 5 days.

Aβ1-20 = Aβ1-20 (Homo sapiens, UniProt P05067); test: Hydrolysis activity against Aβ1-20; conditions: for hydrolysis activity against Aβ1-20: Example 3 (2), (6)
Description: (§2) Further, any change in activity caused by addition of human serum albumin (HSA, Wako Pure Chemical Industries, Ltd., final concentration 0.025%) also was measured.
(§3) As substrates, Aβ42 in the form of soluble powder (authentic sample, Peptide Institute Inc.) and fragment peptides thereof, namely, Aβ1-20, Aβ11-29, and soluble Aβ28-42, were used. […] In the case of MS analysis, the MS analysis was performed after applying 20 μl of the reaction solution to HPLC and collecting an aliquot of the peak.
(§4) The present experiment examined activity against Aβ-Fs in Example 7.
(§5) As substrates, the same Aβ1-20 and Aβ11-29 as used in Example 7 were used.

Aβ11-29 = Aβ11-29 (Homo sapiens, UniProt P05067); test: Hydrolysis activity against Aβ11-29; conditions: for degradation of Aβ-F (Aβ11-29): Example 15, peptide 0.2 mmol/l
Description: as §2, §3
As a substrate, Aβ11-29, which is a fragment peptide of Aβ42, was used. […] In the case of MS analysis, the MS analysis was performed after applying 20 μl of the reaction solution after the reaction for 6 days to HPLC and collecting an aliquot of the peak.
as §4
The reaction solution V shown in FIG. 52 was incubated at 37° C. for a predetermined time, and autodigestion of ANA-YA4 (YRMI) and cleavage of Aβ11-29 were examined.
A reaction solution VI shown in FIG. 52 was incubated at 37° C. for a predetermined time, and cleavage of Aβ1-20 and Aβ11-29 by ANA-SA5 was examined.
as §5
The present example examined autodigestion and activity against Aβ-F of JAL 12-17 (YKGSGF) and JAL 12-16 (YKGSG). […] As a substrate, the same Aβ11-29 as used in Example 7 was used. The autodigestion was examined by causing the reaction in the same manner, except that the substrate was not added.

Aβ28-42 = Aβ28-42 (Homo sapiens, UniProt P05067); test: Hydrolysis activity against Aβ28-42; format: biochemical; conditions: reaction solution II; 1 day, 5 days
[1] = biological target: soluble Aβ1-42 (Aβ42 authentic sample) (Homo sapiens, UniProt P05067); test: Hydrolysis activity against soluble Aβ1-42 (authentic sample); conditions: authentic sample Aβ42, reaction solution III
Description: as §3
Aβ42 was used as a substrate. […] In the case of MS analysis, the MS analysis was performed after applying 20 μl of the reaction solution after the reaction for 7 days to HPLC and collecting an aliquot of the peak.

[2] = Autodigestion of the catalytic peptide (HPLC, MS); format: biochemical
Description: First, to a buffer solution (Tris-HCl, pH 6.5, final concentration: 100 mmol/l), JAL (final concentration: 0.2 mmol/l) and the fragment peptide of hMMP7 (final concentration 0.05 mmol/l) were added. […] Thereafter, the reaction solution was subjected to HPLC, and the peaks of JAL and the fragment peptide of hMMP7 were examined. HPLC was performed under the following conditions.
Next, the mechanism of autodigestion was examined using various mutants of JAL as hydrolytic peptides. To a reaction solution containing each of the mutants of JAL, a protease inhibitor (trade name: Roche cOmplete, Roche) was added to cause a reaction. One tablet of the protease inhibitor was dissolved in 1 ml of Milli-Q water, and then, 50 μl of the resultant mixture was added to the reaction solution. […] As a result, the autodigestion of all the peptides subjected to the measurement was inhibited (FIG. 16).
Autodigestion in Box B was examined.
JAL-TA9 was reacted in the same manner except that a substrate was not added to examine the autodigestion of JAL-TA9.
The influence of an inhibitor on autodigestion of JAL-TA9 was examined. […] As the protease inhibitor, the serine protease inhibitor AEBSF, which inhibited the autodigestion of JAL 12-22 C19M in the item (6) in Example 4, was used.

PrP 175-189 = PrP 175-189 (Homo sapiens, UniProt P04156)
[3] = reaction solution II, 1 day, 5 days
[4] = Example 14, peptide 0.2 mmol/l, PBS, HSA
[5] = Example 15, substrate not added
[6] = reaction solution VI, reaction for 1 day
[7] = reaction solution VI, reaction for 5 days

SOD1 2-38, sequence (P00441 2-38 limits assumed): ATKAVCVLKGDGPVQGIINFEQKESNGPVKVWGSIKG

KYEGHWYPEKPYKGSGFRMIHI [JAL 1-22 C19M]
hydrolysis activity of JAL mutants (SOD1 2-12): exhibited hydrolysis activity
hydrolysis activity of JAL mutants (SOD1 2-38): exhibited hydrolysis activity
hydrolysis activity against Aβ1-19 (Aβ1-19; CH3OH or CH3CN 10%, 3 or 5 days): did not exhibit activity
hydrolysis activity against Aβ1-19 (Aβ1-19; DMSO 10%, 3 or 5 days): exhibited activity

SKGQA [ANA-SA5]
types of fragments of Aβ1-20 detected (Aβ1-20; reaction for 5 days): 12
types of fragments of Aβ11-29 detected (Aβ11-29; reaction for 5 days): 13

SKGQAYRMI [ANA-TA9]
cleavage of Aβ-Fs (Aβ28-42): could cleave all the Aβ-Fs
cleavage of Aβ-Fs (Aβ1-20; [3]): could cleave all the Aβ-Fs
cleavage of Aβ-Fs (Aβ11-29; [3]): could cleave all the Aβ-Fs
cleavage of Aβ42 [1]: could cleave Aβ42
autodigestion ([2]; reaction solution I, 37° C.): autodigestion of ANA-TA9 was observed
autodigestion in presence of protease inhibitor ([2]; reaction solution IV, 6 hours): inhibited by the protease inhibitor

WIDPFEVSYQIGE [Box B Tob1 8-20]
cleavage sites in Aβ-Fs (MS) (Aβ1-20; Example 14): cleaved at a plurality of sites
degradation of Aβ-Fs (HPLC) (Aβ1-20; [4]): degraded Aβ-Fs
cleavage sites in Aβ-Fs (MS) (Aβ11-29; Example 14): cleaved at a plurality of sites
degradation of Aβ-Fs (HPLC) (Aβ11-29; [4]): degraded Aβ-Fs
autodigestion ([2]; Example 6, HSA added, 5 days): fragments suggesting the occurrence of autodigestion were observed

WVDPYEVSYRIGE [Box B BTG1 8-20]
hydrolysis activity against Aβ11-29 (Aβ11-29; Example 6 (3)): exhibited activity
autodigestion ([2]; Example 6, HSA added, 5 days): fragments suggesting the occurrence of autodigestion were observed

YKGAGFR
hydrolysis activity against Aβ1-20 (Aβ1-20): exhibited activity

YKGSG [JAL 12-16]
degradation of Aβ-F (Aβ11-29) (Aβ11-29; PBS, HSA): degraded Aβ-F
autodigestion [2, 5]: digested themselves

YKGSGF [JAL 12-17]
degradation of Aβ-F (Aβ11-29) (Aβ11-29; PBS, HSA): degraded Aβ-F
autodigestion [2, 5]: digested themselves

YKGSGFR [JAL (Tob1) 12-18]
hydrolysis activity against Aβ1-20 (Aβ1-20): exhibited activity

YKGSGFRMI [JAL 12-20 C19M]
hydrolysis activity against Aβ11-29 (Aβ11-29; Example 3 (6)): exhibited activity
hydrolysis activity against Aβ11-29 (Aβ11-29; Example 4 (5)): strong activity
autodigestion in presence of protease inhibitor ([2]; AEBSF, with Aβ11-29, 1 day): inhibited by AEBSF

YKGSGFRMIHA
hydrolysis activity against Aβ11-29 (Aβ11-29; Example 3 (6)): exhibited activity

YPEKPLKGSGFRCVHI [Tob2 7-22]
hydrolysis activity against PrP 175-189 (PrP 175-189): exhibited activity
hydrolysis activity against PrP 175-189 (PrP 175-189; Cu2+ further added to HSA): exhibited activity

YPEKPSKGQAYRCIRV [BTG3 7-22]
hydrolysis activity against PrP 175-189 (PrP 175-189): exhibited activity
hydrolysis activity against PrP 175-189 (PrP 175-189; Cu2+ further added to HSA): exhibited activity

YPEKPYKGSGFRCIHI [JAL 7-22]
hydrolysis activity of JAL mutants (SOD1 2-12): exhibited hydrolysis activity
hydrolysis activity of JAL mutants (SOD1 2-38): exhibited hydrolysis activity
hydrolysis activity against Aβ1-19 (Aβ1-19; high peptide concentration): lowered
hydrolysis activity against Aβ1-19 (Aβ1-19; substrate:peptide 1:1 (0.05 mmol/l) and 1:4 (0.2 mmol/l), 3 or 5 days): strong activity

YRMI [ANA-SA4]
cleavage of Aβ1-20 (Aβ1-20; reaction solution V, 37° C.): degraded Aβ1-20
Aβ1-20 peak remaining (Aβ1-20; [6]): 49.6%
Aβ1-20 peak (Aβ1-20; [7]): almost disappeared
cleavage of Aβ11-29 (Aβ11-29; reaction solution V, 37° C.): degraded Aβ11-29
Aβ11-29 peak remaining (Aβ11-29; [6]): 72%
Aβ11-29 peak (Aβ11-29; [7]): almost disappeared
autodigestion ([2]; reaction solution V, 37° C.): digested itself
